Test results: the supplement of paper PMC12458215
± gives the uncertainty stated by the source.

System: HEK293T
Experiment: plasma membrane surface immunostaining intensity (anti-HA, deep receptor scanning) (arbitrary fluorescence units); higher = higher plasma membrane expression

Sequence | plasma membrane surface immunostaining intensity (GPCR class: A) | plasma membrane surface immunostaining intensity (GPCR class: A (Olfactory)) | other results
MRGFNLLLFWGCCVMHSWEGHIRPTRKPNTKGNNCRDSTLCPAYATCTNTVDSYYCACKQGFLSSNGQNHFKDPGVRCKDIDECSQSPQPCGPNSSCKNLSGRYKCSCLDGFSSPTGNDWVPGKPGNFSCTDINECLTSSVCPEHSDCVNSMGSYSCSCQVGFISRNSTCEDVDECADPRACPEHATCNNTVGNYSCFCNPGFESSSGHLSFQGLKASCEDIDECTEMCPINSTCTNTPGSYFCTCHPGFAPSNGQLNFTDQGVECRDIDECRQDPSTCGPNSICTNALGSYSCGCIAGFHPNPEGSQKDGNFSCQRVLFKCKEDVIPDNKQIQQCQEGTAVKPAYVSFCAQINNIFSVLDKVCENKTTVVSLKNTTESFVPVLKQISTWTKFTKEETSSLATVFLESVESMTLASFWKPSANITPAVRTEYLDIESKVINKECSEENVTLDLVAKGDKMKIGCSTIEESESTETTGVAFVSFVGMESVLNERFFKDHQAPLTTSEIKLKMNSRVVGGIMTGEKKDGFSDPIIYTLENIQPKQKFERPICVSWSTDVKGGRWTSFGCVILEASETYTICSCNQMANLAVIMASGELTMDFSLYIISHVGIIISLVCLVLAIATFLLCRSIRNHNTYLHLHLCVCLLLAKTLFLAGIHKTDNKMGCAIIAGFLHYLFLACFFWMLVEAVILFLMVRNLKVVNYFSSRNIKMLHICAFGYGLPMLVVVISASVQPQGYGMHNRCWLNTETGFIWSFLGPVCTVIVINSLLLTWTLWILRQRLSSVNAEVSTLKDTRLLTFKAFAQLFILGCSWVLGIFQIGPVAGVMAYLFTIINSLQGAFIFLIHCLLNGQVREEYKRWITGKTKPSSQSQTSRILLSSMPSASKTG [ADGRE1] |  |  | plasma membrane surface immunostaining intensity (GPCR class: B): 948 ± 160
MRLSAGPDAGPSGNSSPWWPLATGAGNTSREAEALGEGNGPPRDVRNEELAKLEIAVLAVTFAVAVLGNSSVLLALHRTPRKTSRMHLFIRHLSLADLAVAFFQVLPQMCWDITYRFRGPDWLCRVVKHLQVFGMFASAYMLVVMTADRYIAVCHPLKTLQQPARRSRLMIAAAWVLSFVLSTPQYFVFSMIEVNNVTKARDCWATFIQPWGSRAYVTWMTGGIFVAPVVILGTCYGFICYNIWCNVRGKTASRQSKGAEQAGVAFQKGFLLAPCVSSVKSISRAKIRTVKMTFVIVTAYIVCWAPFFIIQMWSVWDPMSVWTESENPTITITALLGSLNSCCNPWIYMFFSGHLLQDCVQSFPCCQNMKEKFNKEDTDSMSRRQTFYSNNRSPTNSTGMWKDSPKSSKSIKFIPVST [AVPR1A] | 497 ± 41 |  | 
MRMEDEDYNTSISYGDEYPDYLDSIVVLEDLSPLEARVTRIFLVVVYSIVCFLGILGNGLVIIIATFKMKKTVNMVWFLNLAVADFLFNVFLPIHITYAAMDYHWVFGTAMCKISNFLLIHNMFTSVFLLTIISSDRCISVLLPVWSQNHRSVRLAYMACMVIWVLAFFLSSPSLVFRDTANLHGKISCFNNFSLSTPGSSSWPTHSQMDPVGYSRHMVVTVTRFLCGFLVPVLIITACYLTIVCKLQRNRLAKTKKPFKIIVTIIITFFLCWCPYHTLNLLELHHTAMPGSVFSLGLPLATALAIANSCMNPILYVFMGQDFKKFKVALFSRLVNALSEDTGHSSYPSHRSFTKMSSMNERTSMNERETGML [CMKLR1] | 747 ± 64 |  | 
MRPPSPLPARWLCVLAGALAWALGPAGGQAARLQEECDYVQMIEVQHKQCLEEAQLENETIGCSKMWDNLTCWPATPRGQVVVLACPLIFKLFSSIQGRNVSRSCTDEGWTHLEPGPYPIACGLDDKAASLDEQQTMFYGSVKTGYTIGYGLSLATLLVATAILSLFRKLHCTRNYIHMHLFISFILRAAAVFIKDLALFDSGESDQCSEGSVGCKAAMVFFQYCVMANFFWLLVEGLYLYTLLAVSFFSERKYFWGYILIGWGVPSTFTMVWTIARIHFEDYGCWDTINSSLWWIIKGPILTSILVNFILFICIIRILLQKLRPPDIRKSDSSPYSRLARSTLLLIPLFGVHYIMFAFFPDNFKPEVKMVFELVVGSFQGFVVAILYCFLNGEVQAELRRKWRRWHLQGVLGWNPKYRHPSGGSNGATCSTQVSMLTRVSPGARRSSSFQAEVSLV [VIPR1] |  |  | plasma membrane surface immunostaining intensity (GPCR class: B): 5730 ± 200
MRRNCTLVTEFILLGLTSRRELQILLFTLFLAIYMVTVAGNLGMIVLIQANAWLHMPMYFFLSHLSFVDLCFSSNVTPKMLEIFLSEKKSISYPACLVQCYLFIALVHVEIYILAVMAFDRYMAICNPLLYGSRMSKSVCSFLITVPYVYGALTGLMETMWTYNLAFCGPNEINHFYCADPPLIKLACSDTYNKELSMFIVAGWNLSFSLFIICISYLYIFPAILKIRSTEGRQKAFSTCGSHLTAVTIFYATLFFMYLRPPSKESVEQGKMVAVFYTTVIPMLNLIIYSLRNKNVKEALIKELSMKIYFS [OR5M8] |  | 115 ± 18 | 
MRTLLPPALLTCWLLAPVNSIHPECRFHLEIQEEETKCAELLRSQTEKHKACSGVWDNITCWRPANVGETVTVPCPKVFSNFYSKAGNISKNCTSDGWSETFPDFVDACGYSDPEDESKITFYILVKAIYTLGYSVSLMSLATGSIILCLFRKLHCTRNYIHLNLFLSFILRAISVLVKDDVLYSSSGTLHCPDQPSSWVGCKLSLVFLQYCIMANFFWLLVEGLYLHTLLVAMLPPRRCFLAYLLIGWGLPTVCIGAWTAARLYLEDTGCWDTNDHSVPWWVIRIPILISIIVNFVLFISIIRILLQKLTSPDVGGNDQSQYKRLAKSTLLLIPLFGVHYMVFAVFPISISSKYQILFELCLGSFQGLVVAVLYCFLNSEVQCELKRKWRSRCPTPSASRDYRVCGSSFSRNGSEGALQFHRGSRAQSFLQTETSVI [VIPR2] |  |  | plasma membrane surface immunostaining intensity (GPCR class: B): 6470 ± 74
MRTLNTSAMDGTGLVVERDFSVRILTACFLSLLILSTLLGNTLVCAAVIRFRHLRSKVTNFFVISLAVSDLLVAVLVMPWKAVAEIAGFWPFGSFCNIWVAFDIMCSTASILNLCVISVDRYWAISSPFRYERKMTPKAAFILISVAWTLSVLISFIPVQLSWHKAKPTSPSDGNATSLAETIDNCDSSLSRTYAISSSVISFYIPVAIMIVTYTRIYRIAQKQIRRIAALERAAVHAKNCQTTTGNGKPVECSQPESSFKMSFKRETKVLKTLSVIMGVFVCCWLPFFILNCILPFCGSGETQPFCIDSNTFDVFVWFGWANSSLNPIIYAFNADFRKAFSTLLGCYRLCPATNNAIETVSINNNGAAMFSSHHEPRGSISKECNLVYLIPHAVGSSEDLKKEEAAGIARPLEKLSPALSVILDYDTDVSLEKIQPITQNGQHPT [DRD1] | 1460 ± 310 |  | 
MRWLWPLAVSLAVILAVGLSRVSGGAPLHLGRHRAETQEQQSRSKRGTEDEEAKGVQQYVPEEWAEYPRPIHPAGLQPTKPLVATSPNPGKDGGTPDSGQELRGNLTGAPGQRLQIQNPLYPVTESSYSAYAIMLLALVVFAVGIVGNLSVMCIVWHSYYLKSAWNSILASLALWDFLVLFFCLPIVIFNEITKQRLLGDVSCRAVPFMEVSSLGVTTFSLCALGIDRFHVATSTLPKVRPIERCQSILAKLAVIWVGSMTLAVPELLLWQLAQEPAPTMGTLDSCIMKPSASLPESLYSLVMTYQNARMWWYFGCYFCLPILFTVTCQLVTWRVRGPPGRKSECRASKHEQCESQLNSTVVGLTVVYAFCTLPENVCNIVVAYLSTELTRQTLDLLGLINQFSTFFKGAITPVLLLCICRPLGQAFLDCCCCCCCEECGGASEASAANGSDNKLKTEVSSSIYFHKPRESPPLLPLGTPC [GPR37L1] | 148 ± 21 |  | 
MSANATLKPLCPILEQMSRLQSHSNTSIRYIDHAAVLLHGLASLLGLVENGVILFVVGCRMRQTVVTTWVLHLALSDLLASASLPFFTYFLAVGHSWELGTTFCKLHSSIFFLNMFASGFLLSAISLDRCLQVVRPVWAQNHRTVAAAHKVCLVLWALAVLNTVPYFVFRDTISRLDGRIMCYYNVLLLNPGPDRDATCNSRQVALAVSKFLLAFLVPLAIIASSHAAVSLRLQHRGRRRPGRFVRLVAAVVAAFALCWGPYHVFSLLEARAHANPGLRPLVWRGLPFVTSLAFFNSVANPVLYVLTCPDMLRKLRRSLRTVLESVLVDDSELGGAGSSRRRRTSSTARSASPLALCSRPEEPRGPARLLGWLLGSCAASPQTGPLNRALSSTSS [PTGDR2] | 6413 ± 49 |  | 
MSASNITLTHPTAFLLVGIPGLEHLHIWISIPFCLAYTLALLGNCTLLLIIQADAALHEPMYLFLAMLAAIDLVLSSSALPKMLAIFWFRDREINFFACLAQMFFLHSFSIMESAVLLAMAFDRYVAICKPLHYTKVLTGSLITKIGMAAVARAVTLMTPLPFLLRCFHYCRGPVIAHCYCEHMAVVRLACGDTSFNNIYGIAVAMFIVVLDLLLVILSYIFILQAVLLLASQEARYKAFGTCVSHIGAILAFYTTVVISSVMHRVARHAAPHVHILLANFYLLFPPMVNPIIYGVKTKQIRESILGVFPRKDM [OR52K2] |  | 441 ± 130 | 
MSEEEFYLFKNISSVGPWDGPQYHIAPVWAFYLQAAFMGTVFLIGFPLNAMVLVATLRYKKLRQPLNYILVNVSFGGFLLCIFSVFPVFVASCNGYFVFGRHVCALEGFLGTVAGLVTGWSLAFLAFERYIVICKPFGNFRFSSKHALTVVLATWTIGIGVSIPPFFGWSRFIPEGLQCSCGPDWYTVGTKYRSESYTWFLFIFCFIVPLSLICFSYTQLLRALKAVAAQQQESATTQKAEREVSRMVVVMVGSFCVCYVPYAAFAMYMVNNRNHGLDLRLVTIPSFFSKSACIYNPIIYCFMNKQFQACIMKMVCGKAMTDESDTCSSQKTEVSTVSSTQVGPN [OPN1SW] | 2770 ± 310 |  | 
MSENGSFANCCEAGGWAVRPGWSGAGSARPSRTPRPPWVAPALSAVLIVTTAVDVVGNLLVILSVLRNRKLRNAGNLFLVSLALADLVVAFYPYPLILVAIFYDGWALGEEHCKASAFVMGLSVIGSVFNITAIAINRYCYICHSMAYHRIYRRWHTPLHICLIWLLTVVALLPNFFVGSLEYDPRIYSCTFIQTASTQYTAAVVVIHFLLPIAVVSFCYLRIWVLVLQARRKAKPESRLCLKPSDLRSFLTMFVVFVIFAICWAPLNCIGLAVAINPQEMAPQIPEGLFVTSYLLAYFNSCLNAIVYGLLNQNFRREYKRILLALWNPRHCIQDASKGSHAEGLQSPAPPIIGVQHQADAL [MTNR1B] | 280 ± 17 |  | 
MSGDNSSSLTPGFFILNGVPGLEATHIWISLPFCFMYIIAVVGNCGLICLISHEEALHRPMYYFLALLSFTDVTLCTTMVPNMLCIFWFNLKEIDFNACLAQMFFVHMLTGMESGVLMLMALDRYVAICYPLRYATILTNPVIAKAGLATFLRNVMLIIPFTLLTKRLPYCRGNFIPHTYCDHMSVAKVSCGNFKVNAIYGLMVALLIGVFDICCISVSYTMILQAVMSLSSADARHKAFSTCTSHMCSIVITYVAAFFTFFTHRFVGHNIPNHIHIIVANLYLLLPPTMNPIVYGVKTKQIQEGVIKFLLGDKVSFTYDK [OR52N2] |  | 157 ± 54 | 
MSGENVTKVSTFILVGLPTAPGLQYLLFLLFLLTYLFVLVENLAIILIVWSSTSLHRPMYYFLSSMSFLEIWYVSDITPKMLEGFLLQQKRISFVGCMTQLYFFSSLVCTECVLLASMAYDRYVAICHPLRYHVLVTPGLCLQLVGFSFVSGFTISMIKVCFISSVTFCGSNVLNHFFCDISPILKLACTDFSTAELVDFILAFIILVFPLLATILSYWHITLAVLRIPSATGCWRAFSTCASHLTVVTVFYTALLFMYVRPQAIDSQSSNKLISAVYTVVTPIINPLIYCLRNKEFKDALKKALGLGQTSH [OR6B2] |  | 153 ± 9.6 | 
MSGENVTRVGTFILVGFPTAPGLQYLLFLLFLLTYLFVLVENLAIILTVWSSTSLHRPMYYFLSSMSFLEIWYVSDITPKMLEGFLLQQKRISFVGCMTQLYFFSSLVCTECVLLASMAYDRYVAICHPLRYHVLVTPGLCLQLVGFSFVSGFTISMIKVCFISSVTFCGSNVLNHFFCDISPILKLACTDFSTAELVDFILAFIILVFPLLATMLSYAHITLAVLRIPSATGCWRAFFTCASHLTVVTVFYTALLFMYVRPQAIDSRSSNKLISVLYTVITPILNPLIYCLRNKEFKNALKKAFGLTSCAVEGRLSSLLELHLQIHSQPL [OR6B3] |  | 115 ± 11 | 
